Results published in patent publication US20100011462A1, “FLAVIN MONOOXYGENASES AND TRANSCRIPTION FACTORS INVOLVED IN GLUCOSINOLATE BIOSYNTHESIS” (University of Copenhagen, priority 2006, published 2010).

T1: At1g12140 (Arabidopsis thaliana, UniProt A8MRX0)
T1 construct: made in house; host or cells: E. coli
T1 sequence (A8MRX0 1-459): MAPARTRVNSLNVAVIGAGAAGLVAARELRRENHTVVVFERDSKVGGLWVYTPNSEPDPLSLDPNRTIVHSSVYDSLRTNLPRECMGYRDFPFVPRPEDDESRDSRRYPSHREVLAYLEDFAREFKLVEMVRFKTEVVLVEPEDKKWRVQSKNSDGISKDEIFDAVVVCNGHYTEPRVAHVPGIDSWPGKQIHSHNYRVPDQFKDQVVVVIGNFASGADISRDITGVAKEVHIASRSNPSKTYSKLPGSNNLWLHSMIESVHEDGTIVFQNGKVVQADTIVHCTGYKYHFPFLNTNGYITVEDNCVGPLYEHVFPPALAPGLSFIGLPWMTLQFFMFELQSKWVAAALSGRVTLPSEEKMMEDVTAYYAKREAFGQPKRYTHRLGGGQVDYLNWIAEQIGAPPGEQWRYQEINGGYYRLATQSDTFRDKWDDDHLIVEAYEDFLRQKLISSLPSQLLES

B1: At1g65860: flavin-containing monooxygenase (FMO) from A. thaliana, SEQ ID NO 4; also its overexpression in planta (protein, listed as Arabidopsis thaliana)
chain: MAPTQNTICSKHVAVIGAGAAGLVTARELRREGHTVVVFDREKQVGGLWNYSSKADSDPLSLDTTRTIVHTSIYESLRTNLPRECMGFTDFPFVPRIHDISRDSRRYPSHREVLAYLQDFAREFKIEEMVRFETEVVCVEPVNGKWSVRSKNSVGFAAHEIFDAVVVCSGHFTEPNVAHIPGIKSWPGKQIHSHNYRVPGPFNNEVVVVIGNYASGADISRDIAKVAKEVHIASRASESDTYQKLPVPQNNLWVHSEIDFAHQDGSILFKNGKVVYADTIVHCTGYKYYFPFLETNGYININENRVEPLYKHVFLPALAPSLSFIGLPGMAIQFVMFEIQSKWVAAVLSGRVILPSQDKMMEDIIEWYATLDVLGIPKRHTHKLGKISCEYLNWIAEECHCSPVENWRIQEVERGFQRMVSHPEIYRDEWDDDDLMEEAYKDFARKKLISSHPSYFLES
B2: At1g62560: flavin-containing monooxygenase (FMO) from A. thaliana, SEQ ID NO 2; also its overexpression in planta (protein, listed as Arabidopsis thaliana)
chain: MAPAQNQITSKHVAVIGAGPAGLITSRELRREGHSVVVFEREKQVGGLWVYTPKSDSDPLSLDPTRSKVHSSIYESLRTNVPRESMGVRDFPFLPRFDDESRDARRYPNHREVLAYIQDFAREFKIEEMIRFETEVVRVEPVDNGNWRVQSKNSGGFLEDEIYDAVVVCNGHYTEPNIAHIPGIKSWPGKQIHSHNYRVPDPFENEVVVVIGNFASGADISRDIAKVAKEVHIASRAREPHTYEKISVPQNNLWMHSEIDTTHEDGSIVFKNGKVIFADSIVYCTGYKYNFPFLETNGYLRIDEKRVEPLYKHVFPPALAPGLAFVGLPAMGIVFVMFEIQSKWVAAVLSGRVTLPSTDKMMEDINAWYASLDALGIPKRHTHTIGRIQSEYLNWVAKESGCELVERWRGQEVDGGYLRLVAHPETYRDEWDDDELIEEAYNDFSRKKLISVDPSYYLENGR

Legend:
[1] = biological target: T1, At1g12140; test: Heterologous expression of At1g12140 in E. coli, desulfo-glucosinolate substrate mix; type: biochemical; settings: desulfo-glucosinolates from Arabidopsis Col-0 seeds as substrate mix
From the text: (§1) FIG. 15—Heterologous expression of At1g12140 in E. coli using desulfo-glucosinolates from glucosinolates from Arabidopsis Col-0 seeds as substrate mix.

[2] = Activity of FMOs of the invention in E. coli or in seeds using a variety of substrates; type: biochemical, Arabidopsis thaliana; settings: for S-oxygenation activity: desulfo and intact glucosinolates; for substrate specificity: methylthio glucosinolates in Arabidopsis
From the text: FIG. 11—Heterologous expression of At1g62560 in E. coli using 4MTB as substrate, with an empty vector as control.
FIG. 13—Heterologous expression of At1g62540 in E. coli using 4MTB as substrate, with an empty vector as control.
as §1
FIG. 17—Heterologous expression of At1g62570 in E. coli using desulfo-glucosinolates from glucosinolates from Arabidopsis Col-0 seeds as substrate mix, with an empty vector as control.
FIGS. 11-18 show the activity of At1g62560, At1g65860, At1g62540, At1g12140 and At1g62570 in E. coli or in seeds using a variety of substrates.

[3] = test system: Arabidopsis thaliana Col-0; test: 4MTB and 4MSB levels in At1g65860 and At1g62560 overexpression lines; type: in vivo; settings: expressed constitutively
Procedure: FIG. 5—4-methylthiobutyl glucosinolate levels in rosette leaves from 24 day old wild type columbia and transgenic At1g65860 and At1g62560 overexpression lines. Quantities are given in nmol/mg fresh weight ±one standard deviation and are the mean of extractions from four individual plants. Two independent lines were analysed for each construct. The lines H and AT for 35S overexpression of At1g65860 and line 9 and 11 for 35S overexpression of At1g62560.
FIG. 12—4-6 fold increase in 4MSB levels in seeds in overexpressors of At1g62560 and At1g65860.
In another separate experiment a mix of heterozygous and homozygous 35S:At1g62560 and 35S:At1g65860 as well as Arabidopsis thaliana, ecotype Columbia, were used.
Three-four leaves (20-80 mg) were harvested from each plant and the material freeze-dried O/N. After adding one ball bearing to each tube, the tissue was homogenized by shaking at a frequency of 30 s^−1 for one min on a Retsch Mixer Mill 303 (Retsch, Haan, Germany). 250 μl of 85% methanol was added to each tube and the entire box vortexed for 30 s. For glucosinolate extraction from seeds (10-20 mg) 250 μl of 85% methanol was added before homogenization. The samples were mixed for two minutes by vortexing. […]

S-oxygenation activity [1] | Molecule | S-oxygenation activity [2] | substrate specificity [2] | 4-methylthiobutyl glucosinolate levels [3]
high activity | CSCCCCCCCCC(=NOS(=O)(=O)O)S[C@@H]1O[C@H](CO)[C@@H](O)[C@H](O)[C@H]1O [8MTO, 8-methylthiooctyl glucosinolate] | – | – | –
– | B1 | S-oxygenation activity | broad specificity towards all methylthio (MT) glucosinolates | reduced
– | B2 | S-oxygenation activity | broad specificity towards all methylthio (MT) glucosinolates | reduced
